The record followed here is article doi:10.1101/2022.12.10.519866 (bioRxiv, 2022).

What all share (experiment): cryo-EM structure
The target in data set [1] is 3×FLAG-tagged full-length mouse BIRC6 (mouse) (UniProt O88738).
Data set [2] deals with 3×FLAG-tagged full-length mouse BIRC6 (mouse, UniProt O88738 1-4882).
The data set “cryo-EM structure” deals with the molecule itself.

Sequence of 3×FLAG-tagged full-length mouse BIRC6 (O88738 whole entry): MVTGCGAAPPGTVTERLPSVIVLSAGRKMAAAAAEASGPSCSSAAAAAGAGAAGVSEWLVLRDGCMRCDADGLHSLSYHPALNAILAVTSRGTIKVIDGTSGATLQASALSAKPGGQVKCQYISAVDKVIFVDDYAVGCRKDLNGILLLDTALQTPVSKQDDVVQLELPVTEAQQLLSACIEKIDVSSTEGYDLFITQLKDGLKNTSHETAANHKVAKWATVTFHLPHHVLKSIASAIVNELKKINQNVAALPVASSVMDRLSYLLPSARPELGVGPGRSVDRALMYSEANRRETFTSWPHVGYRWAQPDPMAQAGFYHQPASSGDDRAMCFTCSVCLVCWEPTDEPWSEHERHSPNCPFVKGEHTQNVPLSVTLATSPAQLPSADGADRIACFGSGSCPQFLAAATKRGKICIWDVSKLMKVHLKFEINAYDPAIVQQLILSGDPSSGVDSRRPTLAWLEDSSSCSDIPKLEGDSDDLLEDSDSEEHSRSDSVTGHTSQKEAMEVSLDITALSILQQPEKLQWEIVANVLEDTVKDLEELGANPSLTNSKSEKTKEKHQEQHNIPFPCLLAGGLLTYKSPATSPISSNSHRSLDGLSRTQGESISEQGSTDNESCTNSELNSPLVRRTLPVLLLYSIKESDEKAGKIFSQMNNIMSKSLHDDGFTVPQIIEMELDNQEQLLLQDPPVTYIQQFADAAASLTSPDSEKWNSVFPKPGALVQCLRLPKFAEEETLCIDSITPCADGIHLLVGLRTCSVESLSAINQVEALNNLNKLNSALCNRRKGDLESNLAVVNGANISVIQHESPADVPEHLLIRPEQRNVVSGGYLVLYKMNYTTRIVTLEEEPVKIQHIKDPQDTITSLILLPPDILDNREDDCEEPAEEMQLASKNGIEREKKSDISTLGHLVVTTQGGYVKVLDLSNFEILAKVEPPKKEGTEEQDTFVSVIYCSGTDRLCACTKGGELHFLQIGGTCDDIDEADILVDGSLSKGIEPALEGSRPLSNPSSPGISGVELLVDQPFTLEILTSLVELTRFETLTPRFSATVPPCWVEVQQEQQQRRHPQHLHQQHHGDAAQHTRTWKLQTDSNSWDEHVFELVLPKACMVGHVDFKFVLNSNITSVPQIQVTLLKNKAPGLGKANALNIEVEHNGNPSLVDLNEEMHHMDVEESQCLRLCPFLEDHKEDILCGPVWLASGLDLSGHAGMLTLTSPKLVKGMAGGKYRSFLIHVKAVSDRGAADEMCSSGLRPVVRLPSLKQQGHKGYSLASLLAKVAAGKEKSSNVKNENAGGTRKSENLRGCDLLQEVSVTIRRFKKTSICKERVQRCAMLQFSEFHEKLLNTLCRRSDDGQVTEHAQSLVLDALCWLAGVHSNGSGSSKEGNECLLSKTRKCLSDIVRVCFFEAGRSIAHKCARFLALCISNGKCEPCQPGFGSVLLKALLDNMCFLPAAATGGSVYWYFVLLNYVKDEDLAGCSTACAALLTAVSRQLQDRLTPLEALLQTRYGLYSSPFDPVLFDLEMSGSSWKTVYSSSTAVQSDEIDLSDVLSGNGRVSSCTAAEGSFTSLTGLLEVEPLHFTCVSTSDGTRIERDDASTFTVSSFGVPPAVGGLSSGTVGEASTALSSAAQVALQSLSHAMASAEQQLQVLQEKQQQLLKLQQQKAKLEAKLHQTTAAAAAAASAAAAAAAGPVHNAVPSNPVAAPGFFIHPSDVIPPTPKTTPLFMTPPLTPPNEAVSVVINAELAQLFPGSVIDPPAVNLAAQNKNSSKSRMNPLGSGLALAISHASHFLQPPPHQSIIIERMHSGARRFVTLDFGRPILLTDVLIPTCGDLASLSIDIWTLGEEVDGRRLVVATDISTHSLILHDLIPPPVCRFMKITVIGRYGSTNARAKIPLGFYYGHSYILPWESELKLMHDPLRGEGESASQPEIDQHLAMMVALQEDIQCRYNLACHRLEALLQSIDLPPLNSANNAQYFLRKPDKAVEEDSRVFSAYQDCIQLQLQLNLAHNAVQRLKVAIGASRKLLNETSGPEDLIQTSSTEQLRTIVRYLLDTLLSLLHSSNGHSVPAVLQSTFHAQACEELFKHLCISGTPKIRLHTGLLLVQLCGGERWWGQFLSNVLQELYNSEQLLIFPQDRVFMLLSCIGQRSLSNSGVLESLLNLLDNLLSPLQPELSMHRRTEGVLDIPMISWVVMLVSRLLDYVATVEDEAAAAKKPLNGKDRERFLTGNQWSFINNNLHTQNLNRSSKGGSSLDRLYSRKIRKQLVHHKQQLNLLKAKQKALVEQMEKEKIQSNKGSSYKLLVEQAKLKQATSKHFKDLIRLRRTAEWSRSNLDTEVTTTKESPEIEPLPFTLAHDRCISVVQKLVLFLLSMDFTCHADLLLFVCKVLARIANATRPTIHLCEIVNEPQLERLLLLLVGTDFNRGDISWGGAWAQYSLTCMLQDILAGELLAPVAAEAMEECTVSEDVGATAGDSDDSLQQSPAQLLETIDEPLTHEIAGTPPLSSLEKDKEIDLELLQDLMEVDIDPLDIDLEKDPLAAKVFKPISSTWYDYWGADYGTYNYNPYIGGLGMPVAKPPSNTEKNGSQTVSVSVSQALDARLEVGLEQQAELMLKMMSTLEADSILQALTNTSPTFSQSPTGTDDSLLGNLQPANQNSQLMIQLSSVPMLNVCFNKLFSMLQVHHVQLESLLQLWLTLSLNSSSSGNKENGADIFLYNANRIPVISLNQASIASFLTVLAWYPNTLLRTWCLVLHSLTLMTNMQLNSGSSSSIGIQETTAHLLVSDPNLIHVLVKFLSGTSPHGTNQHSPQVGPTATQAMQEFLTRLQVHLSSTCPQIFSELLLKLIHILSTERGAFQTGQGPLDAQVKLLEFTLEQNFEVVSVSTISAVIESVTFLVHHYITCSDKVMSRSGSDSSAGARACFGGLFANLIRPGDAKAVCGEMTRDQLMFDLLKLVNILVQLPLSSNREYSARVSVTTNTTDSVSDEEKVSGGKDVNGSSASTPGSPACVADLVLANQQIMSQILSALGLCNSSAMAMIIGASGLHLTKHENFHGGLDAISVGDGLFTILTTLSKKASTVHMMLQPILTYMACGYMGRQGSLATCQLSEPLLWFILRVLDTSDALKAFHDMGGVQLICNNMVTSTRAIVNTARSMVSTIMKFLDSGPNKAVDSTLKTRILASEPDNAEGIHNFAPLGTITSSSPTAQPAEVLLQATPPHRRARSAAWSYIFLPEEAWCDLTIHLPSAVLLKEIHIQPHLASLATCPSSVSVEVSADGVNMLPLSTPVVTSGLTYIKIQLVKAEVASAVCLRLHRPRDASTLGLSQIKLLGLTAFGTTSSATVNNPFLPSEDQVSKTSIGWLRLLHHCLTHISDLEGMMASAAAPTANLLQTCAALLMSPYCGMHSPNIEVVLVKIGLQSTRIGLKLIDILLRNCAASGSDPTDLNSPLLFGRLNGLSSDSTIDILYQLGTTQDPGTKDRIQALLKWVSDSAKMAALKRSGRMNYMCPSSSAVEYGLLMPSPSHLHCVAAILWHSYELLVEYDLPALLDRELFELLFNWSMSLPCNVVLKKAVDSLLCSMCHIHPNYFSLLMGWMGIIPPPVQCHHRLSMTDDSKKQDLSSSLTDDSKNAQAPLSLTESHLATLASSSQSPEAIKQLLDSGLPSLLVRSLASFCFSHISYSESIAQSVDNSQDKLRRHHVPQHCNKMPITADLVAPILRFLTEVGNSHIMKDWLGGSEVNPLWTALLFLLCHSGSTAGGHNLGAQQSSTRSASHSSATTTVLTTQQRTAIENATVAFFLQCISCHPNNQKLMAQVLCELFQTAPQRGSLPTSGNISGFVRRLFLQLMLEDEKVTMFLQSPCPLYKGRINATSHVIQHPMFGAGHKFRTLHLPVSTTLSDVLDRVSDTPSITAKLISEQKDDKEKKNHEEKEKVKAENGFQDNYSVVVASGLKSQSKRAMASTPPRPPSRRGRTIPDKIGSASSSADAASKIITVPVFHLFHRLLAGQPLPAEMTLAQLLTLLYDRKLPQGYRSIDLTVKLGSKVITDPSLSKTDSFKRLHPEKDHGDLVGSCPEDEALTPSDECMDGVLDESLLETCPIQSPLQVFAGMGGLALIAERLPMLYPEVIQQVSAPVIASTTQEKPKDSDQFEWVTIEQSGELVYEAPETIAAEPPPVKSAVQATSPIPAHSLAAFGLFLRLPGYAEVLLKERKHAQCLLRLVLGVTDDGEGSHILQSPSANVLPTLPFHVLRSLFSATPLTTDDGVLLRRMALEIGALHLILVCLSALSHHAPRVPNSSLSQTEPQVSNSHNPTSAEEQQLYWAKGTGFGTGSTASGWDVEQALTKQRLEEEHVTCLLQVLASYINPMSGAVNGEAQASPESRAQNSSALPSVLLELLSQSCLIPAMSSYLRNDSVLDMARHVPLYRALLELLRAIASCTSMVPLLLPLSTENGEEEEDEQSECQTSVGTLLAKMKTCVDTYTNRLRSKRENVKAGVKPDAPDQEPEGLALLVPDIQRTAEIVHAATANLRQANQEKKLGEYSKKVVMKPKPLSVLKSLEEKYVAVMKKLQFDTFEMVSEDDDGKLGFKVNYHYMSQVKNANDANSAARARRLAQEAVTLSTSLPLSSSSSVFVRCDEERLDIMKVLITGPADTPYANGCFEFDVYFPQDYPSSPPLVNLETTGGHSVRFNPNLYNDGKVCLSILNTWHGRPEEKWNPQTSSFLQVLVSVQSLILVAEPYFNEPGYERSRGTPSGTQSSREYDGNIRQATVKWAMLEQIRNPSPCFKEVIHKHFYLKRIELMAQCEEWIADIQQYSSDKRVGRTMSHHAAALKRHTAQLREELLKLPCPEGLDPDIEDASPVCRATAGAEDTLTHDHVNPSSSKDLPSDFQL

One may read the stoichiometry N as a count of units in the complex or per binding partner. As to “3×FLAG-tagged full-length mouse BIRC6, O88738 1-4882”, the stoichiometry N in data set [1] was found to be 2.

B1: Smac/DIABLO, endogenous, co-purified with FLAG-BIRC6 from HEK293F cells (natural protein)
chain: AVPIAQKSEPHSLSSEALMRRAVSLVTDSTSTFLSQTTYALIEAITEYTKAVYTLTSLYRQYTSLLGKMNSEEEDEVWQVIIGARAEMTSKHQEYLKLETTWMTAVGLSEMAAEAAYQTGADQASITARNHIQLVKLQVEEVHQLSRKAETKLAEAQIEELRQKTQEEGEERAESEQEAYLRED
In the case of B1, the binding result in data set [2] is listed as “binds”. The “stoichiometry N” value in the data set “cryo-EM structure” was found to be 2.
